Results reported in PMC5914118, “Exploiting the Concept of Multivalency with ^68Ga- and ^89Zr-Labelled Fusarinine C-Minigastrin Bioconjugates for Targeting CCK2R Expression” (Contrast Media & Molecular Imaging, 2018).
Where two headings read alike, the source gives them in different places. Marks after values point to notes of the source that are not given here.

Key:
[1] = type: physicochemical
Procedure: Aliquots (50 μL) of ^68Ga- and ^89Zr-labelled mono-, di-, and trimer (10 μM) were diluted in 450 μL PBS. After adding 500 μL octanol the mixture was vortexed with 1400 rpm (MS 3 basic vortexer, IKA, Staufen, Germany) for 15 min at RT followed by centrifugation for 2 min at 4500 rpm. Subsequently, 100 μL aliquots of the organic and the aqueous layer were collected and logD values were calculated using Excel (n = 3, six replicates) after gamma counter measurement.

[2] = tested on: A431-CCK2R/A431-mock tumour xenografted BALB/c nude mice; conditions: mouse, in vivo
Procedure: All animal experiments were conducted in compliance with the Austrian and Dutch animal protection laws and with approval of the Austrian Ministry of Science (BMWF-66.011/000604-II/3b/2012 and BMWFW-66.011/0049-WF/II/3b/2014). In vivo stability studies were conducted in 5-week-old female BALB/c mice (in-house breed, ZVTA Innsbruck, Dr. Hermann Dietrich). The biodistribution studies were performed using female 8−10-week-old athymic BALB/c nude mice (Charles River Laboratories, Sulzfeld, Germany). Tumour xenografts were induced by subcutaneous injection of 2 × 10^6 A431-CCK2R cells (receptor positive) in the right and the same amount of A431-mock (receptor negative) in the left flank. Tumours were allowed to grow until they had reached a volume of 0.3–0.6 cm^3. To evaluate the biodistribution profile nude mice (n = 4) were intravenously injected with either 1-2 MBq ^68Ga- or 0.3 MBq ^89Zr-labelled mono-, di-, and trimer (0.1–0.2 nmol). The animals were sacrificed by cervical dislocation after 1 h as well as 2 h and 4 h in case of ^68Ga- and ^89Zr-labelled trimer, followed by the collection of organs and tissue. The collected samples were measured in the gamma counter and the results were calculated as percentage of injected dose per gram tissue (% ID/g).

## CSCC[C@H](NC(=O)[C@H](Cc1c[nH]c2ccccc12)NC(=O)CNC(=O)[C@H](Cc1ccc(O)cc1)NC(=O)[C@H](C)NC(=O)[C@@H](CCC(=O)O)NC(=O)CCSC1CC(=O)N(CCC(=O)NC2CCCN(O)C(=O)C=C(C)CCOC(=O)C(NC(=O)CCN3C(=O)CC(SCCC(=O)N[C@H](CCC(=O)O)C(=O)N[C@@H](C)C(=O)N[C@@H](Cc4ccc(O)cc4)C(=O)NCC(=O)N[C@@H](Cc4c[nH]c5ccccc45)C(=O)N[C@@H](CCSC)C(=O)N[C@@H](CC(=O)O)C(=O)N[C@@H](Cc4ccccc4)C(N)=O)C3=O)CCCN(O)C(=O)C=C(C)CCOC(=O)C(NC(=O)CCN3C(=O)CC(SCCC(=O)N[C@H](CCC(=O)O)C(=O)N[C@@H](C)C(=O)N[C@@H](Cc4ccc(O)cc4)C(=O)NCC(=O)N[C@@H](Cc4c[nH]c5ccccc45)C(=O)N[C@@H](CCSC)C(=O)N[C@@H](CC(=O)O)C(=O)N[C@@H](Cc4ccccc4)C(N)=O)C3=O)CCCN(O)C(=O)C=C(C)CCOC2=O)C1=O)C(=O)N[C@@H](CC(=O)O)C(=O)N[C@@H](Cc1ccccc1)C(N)=O (stereo partly drawn) [^68Ga-labelled Trimer, metal not drawn]
[1]
  Distribution coefficient logD (pH 7.4): −2.20 ± 0.07
[2]; 1 h
  Biodistribution: A431-CCK2R tumour (receptor positive): 6.07 ± 1.56 % ID/g
  Biodistribution: A431-mock tumour (receptor negative): 2.17 ± 0.70^e % ID/g
  Biodistribution: Blood: 3.70 ± 1.27 % ID/g
  Biodistribution: Bone: 2.03 ± 0.88 % ID/g
  Biodistribution: Heart: 1.60 ± 0.28^e % ID/g
  Biodistribution: Intestine: 1.15 ± 0.28^e % ID/g
  Biodistribution: Kidneys: 49.7 ± 10.1 % ID/g
  Biodistribution: Liver: 3.71 ± 0.75 % ID/g
  Biodistribution: Lung: 4.47 ± 1.50 % ID/g
  Biodistribution: Muscle: 0.75 ± 0.15 % ID/g
  Biodistribution: Pancreas: 1.37 ± 0.26^e % ID/g
  Biodistribution: Spleen: 2.15 ± 0.32^e % ID/g
  Biodistribution: Stomach: 3.17 ± 0.54 % ID/g
[2]; 2 h
  Biodistribution: A431-CCK2R tumour (receptor positive): 8.73 ± 2.65^e % ID/g
  Biodistribution: A431-mock tumour (receptor negative): 3.18 ± 0.51 % ID/g
  Biodistribution: Blood: 2.53 ± 0.67 % ID/g
  Biodistribution: Bone: 2.52 ± 0.79 % ID/g
  Biodistribution: Heart: 2.18 ± 0.31 % ID/g
  Biodistribution: Intestine: 1.86 ± 0.33 % ID/g
  Biodistribution: Kidneys: 59.6 ± 4.3^f % ID/g
  Biodistribution: Liver: 4.09 ± 0.85 % ID/g
  Biodistribution: Lung: 5.78 ± 0.92 % ID/g
  Biodistribution: Muscle: 0.65 ± 0.14 % ID/g
  Biodistribution: Pancreas: 1.80 ± 0.31 % ID/g
  Biodistribution: Spleen: 2.89 ± 0.53 % ID/g
  Biodistribution: Stomach: 3.86 ± 1.36^f % ID/g
[2]; 4 h
  Biodistribution: A431-CCK2R tumour (receptor positive): 14.44 ± 3.40^f % ID/g
  Biodistribution: A431-mock tumour (receptor negative): 2.16 ± 0.54 % ID/g
  Biodistribution: Blood: 1.76 ± 0.43 % ID/g
  Biodistribution: Bone: 2.26 ± 0.41 % ID/g
  Biodistribution: Heart: 1.51 ± 0.33^f % ID/g
  Biodistribution: Intestine: 2.48 ± 0.59 % ID/g
  Biodistribution: Kidneys: 172.1 ± 14.8 % ID/g
  Biodistribution: Liver: 6.01 ± 2.54 % ID/g
  Biodistribution: Lung: 3.75 ± 0.84^f % ID/g
  Biodistribution: Muscle: 1.01 ± 0.37 % ID/g
  Biodistribution: Pancreas: 3.10 ± 1.13 % ID/g
  Biodistribution: Spleen: 2.77 ± 0.78 % ID/g
  Biodistribution: Stomach: 13.6 ± 4.9 % ID/g

## CSCC[C@H](NC(=O)[C@H](Cc1c[nH]c2ccccc12)NC(=O)CNC(=O)[C@H](Cc1ccc(O)cc1)NC(=O)[C@H](C)NC(=O)[C@@H](CCC(=O)O)NC(=O)CCSC1CC(=O)N(CCC(=O)NC2CCCN(O)C(=O)C=C(C)CCOC(=O)C(NC(=O)CCN3C(=O)CC(SCCC(=O)N[C@H](CCC(=O)O)C(=O)N[C@@H](C)C(=O)N[C@@H](Cc4ccc(O)cc4)C(=O)NCC(=O)N[C@@H](Cc4c[nH]c5ccccc45)C(=O)N[C@@H](CCSC)C(=O)N[C@@H](CC(=O)O)C(=O)N[C@@H](Cc4ccccc4)C(N)=O)C3=O)CCCN(O)C(=O)C=C(C)CCOC(=O)C(NC(C)=O)CCCN(O)C(=O)C=C(C)CCOC2=O)C1=O)C(=O)N[C@@H](CC(=O)O)C(=O)N[C@@H](Cc1ccccc1)C(N)=O (stereo partly drawn) [^89Zr-labelled Dimer, metal not drawn]
[1]
  Distribution coefficient logD (pH 7.4): −2.83 ± 0.02
[2]
  Tumour-to-organ ratio (T/O): A431-mock: 11.2 ± 2.3
  Tumour-to-organ ratio (T/O): Blood: 7.4 ± 2.3^c
  Tumour-to-organ ratio (T/O): Bone: 7.4 ± 1.2^c
  Tumour-to-organ ratio (T/O): Heart: 9.8 ± 4.8
  Tumour-to-organ ratio (T/O): Intestine: 12.5 ± 3.1
  Tumour-to-organ ratio (T/O): Kidneys: 0.15 ± 0.06
  Tumour-to-organ ratio (T/O): Liver: 10.3 ± 3.2^c
  Tumour-to-organ ratio (T/O): Lung: 7.6 ± 2.9^c
  Tumour-to-organ ratio (T/O): Muscle: 7.9 ± 5.3
  Tumour-to-organ ratio (T/O): Pancreas: 9.2 ± 3.1^c
  Tumour-to-organ ratio (T/O): Spleen: 10.5 ± 4.5
  Tumour-to-organ ratio (T/O): Stomach: 3.4 ± 1.1
[2]; 1 h
  Biodistribution: A431-CCK2R tumour (receptor positive): 7.69 ± 1.34^ac % ID/g
  Biodistribution: A431-mock tumour (receptor negative): 0.86 ± 0.22 % ID/g
  Biodistribution: Blood: 1.17 ± 0.28 % ID/g
  Biodistribution: Bone: 1.36 ± 0.42 % ID/g
  Biodistribution: Heart: 1.01 ± 0.37 % ID/g
  Biodistribution: Intestine: 0.73 ± 0.25 % ID/g
  Biodistribution: Kidneys: 55.5 ± 10.3 % ID/g
  Biodistribution: Liver: 0.83 ± 0.20 % ID/g
  Biodistribution: Lung: 1.16 ± 0.28 % ID/g
  Biodistribution: Muscle: 1.51 ± 0.70 % ID/g
  Biodistribution: Pancreas: 0.95 ± 0.23^c % ID/g
  Biodistribution: Spleen: 0.99 ± 0.40 % ID/g
  Biodistribution: Stomach: 2.99 ± 1.13 % ID/g
